In the nanobody polyreactivity screen of Harvey et al. (2022):

Assay: yeast display, Sf9 membrane polyspecificity reagent, FACS + sequencing; frameworks hold sequencing errors
Summary of the method: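 Synthetic nanobody libraries on Saccharomyces cerevisiae BJ5465 were galactose-induced for 36–48 hours, stained 1 hour at 4 °C with 10% biotinylated, detergent-solubilized Sf9 membrane reagent and enriched on streptavidin microbeads. FACS then separated cells into low and high (top ~1%) gates by anti-HA (expression) and streptavidin (reagent binding) fluorescence. Genes were colony-PCR amplified, MiSeq 2 × 250 sequenced and CDR-length filtered. A clone's polyreactivity label is that of its gate of origin.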

Sequence	polyreactivity (PSR sort gate)
QVQLVESVGGLVQAGGSLRLSCAASGFTFYTYAMGWYRQAPGKERELVAAINQRGGRTYYADSVKGRFTISRDNAKNTVYLQMNSLKPEDTAVYYCAKSPPPKTRYDYWGQGTQVTVSS	high polyreactivity
QVQLVESVGGLVQAGGSLRLSCAASGFTLFFYAMGWYRQAPGKERELVARITSRAGRTYYADSVKGRFTISRDNAKNTVYLQMNSLKPEDNAVFYCNTRDFSGYVHALSLYDYWGQGTQVTVSS	high polyreactivity
QVQLVESVGGLVQAGGSLRLSCAASGGIFDTYVMGWYRQAPGKERELVAAISSSGSTTYADSVKGRFTISRDNAKNTVYLQMNSLKPEDTAVYYCNADYSTIWRYDYWGQGTQVTVSS	low polyreactivity
QVQLVESVGGLVQAGGSLRLSCAASGGIFWVYAMGWYRQAPGKERELVADISIADSTNYADSVKGRFTISRDNAKNTVYLQMNSLKPEDTAVYYCNAVPSQHDEFDYWGQGTQVTVSS	low polyreactivity
QVQLVESVGGLVQAGGSLRLSCAASGIIFVYYVMGWYRQAPGKERELVASIDGSGGSTNYADSVKGRFTISRDNAKNTVYLQMNSLKPEDTAVYYCNADNILYWSTLDYWGQGTQVTVSS	low polyreactivity
QVQLVESVGGLVQAGGSLRLSCAASGIIFWWYAIGWYRQAPGKERELVAAINWSGSSTYYADSVKGRFTISRDNAKNTVYLQMKSLKPEDTAVYYCATAGIIQAESEYLSGYDYWGQGTQVTVSS	high polyreactivity
QVQLVESVGGLVQAGGSLRLSCAASGINFGFNTMGWYRQAPGKERELVAAINGSDGSTYADSVKGRFTISRDNAKNTVYLQMNSLKPEDTAVYYCAADAYDGEGTYPFEYWGQGTQVTVSS	low polyreactivity
QVQLVESVGGLVQAGGSLRLSCAASGITFYYNAMGWSRQAPGKERELVAVITSGGSTNYADSVKGRFTISRDNAKNTVYLQMNSLKPEDTAVYYCATDKSYSSWSAQYDYWGQGTQVTVSS	low polyreactivity
QVQLVESVGGLVQAGGSLRLSCAASGITSGTYAMGWYRQAPGKERELVAAISSSGGRTYYADSVKGRFTISRDNAKNTVYLQMNSLKPEDTAVYYCAARIRLSLRTGYDYWGQGTQVTVSS	high polyreactivity
QVQLVESVGGLVQAGGSLRLSCAASGLIFIISTMGWDRQAPGKERELVAAITRRGGITYYADSVKGRFTISRDNAKNTVYLQMNSLKPEDTAVYYCAVVRPYNIWYDYWGQGTQVTVSS	low polyreactivity
QVQLVESVGGLVQAGGSLRLSCAASGRIFGTNAMGWYRQAPGKERELVADITSGGSTNYADSVKGRFTISRDNAKNTVYLQMNSLKPEDTAVYYCAADVIGDLRWYRDEYWGQGTQVTVSS	low polyreactivity
QVQLVESVGGLVQAGGSLRLSCAASGRIFPWYAKGWYRQAPGKERELVAAIRWRGGGTYYADSVKGRFTISRDNAKNTVYLQMNSLKPEDTAVYYCAARRPAKGMGYWGQGTQVTVSS	high polyreactivity
QVQLVESVGGLVQAGGSLRLSCAASGRIFSTYAMGWYRQAPGKERELVAAIRFSGTSTYADSVKGRFTISRDNAKNTVYLQMNSLKPEDTAVDYCAAQRYTYYRRYGYLGQGTQVTVSS	high polyreactivity
QVQLVESVGGLVQAGGSLRLSCAASGRIFVHYVMGWYRQAPGKERELVAAISRSGGRTYYADSVKGRFTISRDNAKNSVYLQMNSLKPEDTAVYYCATDASTYKYDYWGQGTQVTVSS	high polyreactivity
QVQLVESVGGLVQAGGSLRLSCAASGRIFWNYAMGWYRQATGKERELVASISYRGGSTYYADSVKGRFTISRDNAKNTVYLQMNSLKPEDTAVYYCAARTRQARRTDYGYWGQGTQVTVSS	high polyreactivity
QVQLVESVGGLVQAGGSLRLSCAASGRIFYRYGMGWYRQAPGKERELVASITRGGSTYYADSVKGRFTISRDNAKNTVYLQMNSLKPEDTAVYYCATKSSAGYDYWGQGTQVTVSS	low polyreactivity
QVQLVESVGGLVQAGGSLRLSCAASGRILYLNVMGWYRQAPGKERELVASITVSGGITYYADSVKGRFTISRDNAKNTVYLQMNSLKPEDTAVYYCAVDAYPPFFYFTSVWFSYDYWGQGTQVTVSS	low polyreactivity
QVQLVESVGGLVQAGGSLRLSCAASGRTFAAYAMGWYRQAPGKERELVAGITSSSVRTYYADSVKGRFTISRDNAKNTVYLQMNSLKPEDTAVYYCNARADGSSSRWRPYSKFYYWGQGTQVTVSS	low polyreactivity
QVQLVESVGGLVQAGGSLRLSCAASGRTFAGNAMGWYRQAPGKEREFVASITASGVNTYYADSVKGRFTISRDNAKNTVYLQMNSLKPEDTAVYYCNKRNRWTPFYTYDYWGQGTQVTVSS	low polyreactivity
QVQLVESVGGLVQAGGSLRLSCAASGRTFAYYTMGWYRQAPGKERELVARISGYGGSTYYADSVKGRFTISRDNAKNTVYLQMNSLKPEDTAVYYCNVVGAYYRYDYWGQGTQVTVSS	high polyreactivity
QVQLVESVGGLVQAGGSLRLSCAASGRTFFPYAMGWYRQAPGKEREFVAAITKTDDSTYYADSVKGRFTISRDNAKNTVYLQMNSLKPEDTAVYYCNAGDTQIRFYYWGQGTQVTVSS	low polyreactivity
QVQLVESVGGLVQAGGSLRLSCAASGRTFFYNAMGWYRQAPGKERELVAAIDWSGDSTYYADSVKGRFTISRDNAKNTVYLQMNSLKPEDTAVYYCAARRKNRRDYDYYYWGQGTQVTVSS	high polyreactivity

Sequence	polyreactivity (PSR sort gate)
QVQLVESVGGLVQAGGSLRLSCAASGRTFGTYAMGWYRQAPGKERELVAAISTRGGRTFYADSVKGRFTISRDNAKNTVYLQMNSLKPEDTAVYYCAKGVFTWGVFRVGIRDDYWGQGTQVTVSS	high polyreactivity
QVQLVESVGGLVQAGGSLRLSCAASGRTFHYYVMGWYRQEPGKEGELVAAISRSGGNTYYADSVKGRFTISRDNAQNTVYLQMNSLKPEDTADYYCAAALSAYVKWDYYYWGQGTQVTVSS	high polyreactivity
QVQLVESVGGLVQAGGSLRLSCAASGRTFLYYTMGWYRQAPGKERELVAAISTSGGSTNYADSVKGRFTISRDNAKNTVYLQMNSLKPEDTAVYYCAAETSTNPEAYEYWGQGTQVTVSS	low polyreactivity
QVQLVESVGGLVQAGGSLRLSCAASGRTFSFYAMGRYRQRQGKESELVAGIDGNDGSTYYADSVKGRFTISRDNAKNTVYIQMNSLKPEDTAVYYCNAEKWTGQYCCYYRMYYYWGQGTQVTVSS	low polyreactivity
QVQLVESVGGLVQAGGSLRLSCAASGRTFSVYTMGWYRQAPGKERELVASINWSGGRTYYADSVKGRFTISRDNAKNTVYLQMNSLKPEDTAVYYCAATGWRTLYDYWGQGTLVTVSS	high polyreactivity
QVQLVESVGGLVQAGGSLRLSCAASGRTLSYYAMGRYRQAPGKVRELVAAISRRGGSTYYADSVKGRFTISRDKAKNTVYLQMNCLQSKDTAFYYCAATVGNAADYDYGYWGQGTQVTVSS	high polyreactivity
QVQLVESVGGLVQAGGSLRLSCAASGSIFDSYAMGWYRQAPGKERELVADISSGGSTYYADSVKGRFTISRDNAKNTVYLQMNSLKPEDTAVYYCAAQYVYYFYGDEAFTDDYWGQGTQVTVSS	low polyreactivity
QVQLVESVGGLVQAGGSLRLSCAASGSIFGYNAMGWYRQAPGKERELVAVINASGASTYYADSVKGRFTISRDNAKNTVYLQMNSLKPEDTAVYYCAKDPFPFPGGDDWGQGTQVTVSS	low polyreactivity
QVQLVESVGGLVQAGGSLRLSCAASGSIFGYYAMGWYRQAPGKDRELVAGINWSGGSTYADSVKGRFTISRDNAKNTVYIQMNSLKPEDTAVYYCNRRYRKDSSAKYDYWGQGTQVTVSS	high polyreactivity
QVQLVESVGGLVQAGGSLRLSCAASGSIFSVNAMGWYRQAPGKERELVASINFRGGRTYYADSVKGRFTISRDNAKNTVYLQMNSLKPEDTAVYYCAAVITQTDTGYGPSFRVYYWGQGTQVTVSS	high polyreactivity
QVQLVESVGGLVQAGGSLRLSCAASGSIFWFYAMGWYRQAPGKVRELVAAITSTGGTYYADSVKGRFTISRDNAKNTVYLQMNSLKPEDTSVYYCAADRFGVQGAYLYDYWGQGTQVTVSS	low polyreactivity
QVQLVESVGGLVQAGGSLRLSCAASGSTFAGNAMGWSRQAPGKERELVAAIDSSTGSTYYADSVKGRFTISRDNAKNTVYLQMNSLKPEDTSVYYSNKTSFLVKLDYWGHGTQVTVSS	low polyreactivity
QVQLVESVGGLVQAGGSLRLSCAASGSTFEIYAMGWYRQAPGKERELVAVISGGDGSTYYADSVKGRFTISRDNAKNTVYLQMNSLKPEDTAVYYCAADYISPGYWDGEYDCWGQGTQVTVSS	low polyreactivity
QVQLVESVGGLVQAGGSLRLSCAASGSTFRINAMGWYRQAPGKEMELVADINSGGNTTYADSVKGRFTISRDNAKNTVYLQMNSLKPEDTAVYYCAAEPVFDLWEFLLDYGYDYWGQGTQVTLSS	low polyreactivity
QVQLVESVGGLVQAGGSLRLSCAASGSTFVPYAMGWYRQAPGKERELVAAITTSGGNTYYADSVKGRFTISRDNAKNTVYLQMNSLKPEDTAVYYCAADTYRSFDYWGQGTQVTVSS	low polyreactivity
QVQLVESVGGLVQAGGSLRLSCAASGSTFYFNDMGWYRQAPGKERELVAAISRGGSTYYADSVKGRFTISRDTAKNTVYLQMNSLKPEDTAVYYCANGSYVRNYGYWGQGTQVTVSS	high polyreactivity
QVQLVESVGGLVQAGGSLRLSCAASGSTFYPNAMGWYRQAPGKEREFVAAITWSGGRTYYADSVKGRFTNSRDNAKNTVYLQMNSLKPEDTAVYYCSKGGYQHYCGQGTQVTVSS	high polyreactivity
QVQLVESVGGLVQAGGSLRLSCAASGSTIANYAMGWYRQAPGKERELVARIRHSDGSTYYADSVKGRFTISRDNAKNTVYLQMNSLKPEDTAVYYCNVAYPRYRGNPRQSGMGYWGQGTQVTVSS	high polyreactivity
QVQLVESVGGLVQAGGSLRLSCAASGSTLYPYAMGWYRQAPGKERELVAVITLRGGSTYYADSVKGRFTISRDNAKNTVYLQMNSLKPEDTAVYYCAARKRPFYKYDYWGQGTQVTVSS	high polyreactivity
QVQLVESVGGLVQAGGSLRLSCAASGSTSSLYAMGWYRQAPGKERELVASITSRGGSTYYAVSVKGRFTISRDNAKNTVYLLMNSLKPEDTAVYYCAADASRPDRWYLWKYYYWGQGTQVTVSS	high polyreactivity
QVQLVESVGGLVQAGGSLRLSCAASGTFKWYAMGWYRQAPGKERELVAVISSSGGTTYYADSVKGRFTISRDNAKNTVYLQMNSLKPEDTAVYYCNKRFRSWTTGSPYDYWGQGTQVTVSS	high polyreactivity
